Measurements taken from paper PMC12153344, “Deciphering the role of accessory proteins in Arabidopsis chloroplast editosomes via interaction with a synthetic PPR-PLS factor in E. coli”.

Tests used:
[1] = target: T1, dsn3PLS-DYW (synthetic construct (design of Royan et …, UniProt UPI0040747504 1-612)); test: EMSA; dsn3PLS-DYW alone; Kd estimated, value only in figure; REMSA following Royan et al. (2021), binding buffer, pH and temperature not given in the material; proteins stored in 25 mM Tris-HCl pH 7.2, 250 mM NaCl, 20% glycerol, 0.5 mM EDTA, 1 mM DTT; settings: protein: recombinant; tags: N-terminal thioredoxin (109 aa)-6xHis, 133 aa tag in total (pETM20); label: 5'-Cy5; single strand
T1 chain: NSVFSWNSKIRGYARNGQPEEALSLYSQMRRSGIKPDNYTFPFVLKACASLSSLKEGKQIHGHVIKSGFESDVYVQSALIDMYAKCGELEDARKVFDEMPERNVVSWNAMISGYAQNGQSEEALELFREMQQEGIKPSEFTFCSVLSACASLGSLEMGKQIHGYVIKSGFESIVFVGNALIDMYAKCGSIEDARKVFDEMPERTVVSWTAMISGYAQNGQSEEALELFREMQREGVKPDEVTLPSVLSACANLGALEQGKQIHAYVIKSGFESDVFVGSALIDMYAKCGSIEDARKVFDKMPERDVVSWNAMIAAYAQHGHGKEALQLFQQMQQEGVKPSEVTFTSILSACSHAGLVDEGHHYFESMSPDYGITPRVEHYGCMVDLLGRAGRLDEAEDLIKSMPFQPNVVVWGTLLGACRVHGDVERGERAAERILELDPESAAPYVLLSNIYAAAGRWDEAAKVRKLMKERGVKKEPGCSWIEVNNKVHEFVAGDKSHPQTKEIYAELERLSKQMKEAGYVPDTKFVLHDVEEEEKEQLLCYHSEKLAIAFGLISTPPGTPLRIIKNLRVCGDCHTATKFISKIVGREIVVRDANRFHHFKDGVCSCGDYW

[2] = target: T2, MBP-ORRM1 (Arabidopsis, UniProt Q8L440 55-374); test: EMSA; MBP-ORRM1; no shift after many purification attempts; REMSA following Royan et al. (2021), binding buffer, pH and temperature not given in the material; proteins stored in 25 mM Tris-HCl pH 7.2, 250 mM NaCl, 20% glycerol, 0.5 mM EDTA, 1 mM DTT; settings: protein: recombinant; tags: N-terminal MBP; label: 5'-Cy5; single strand
T2 sequence: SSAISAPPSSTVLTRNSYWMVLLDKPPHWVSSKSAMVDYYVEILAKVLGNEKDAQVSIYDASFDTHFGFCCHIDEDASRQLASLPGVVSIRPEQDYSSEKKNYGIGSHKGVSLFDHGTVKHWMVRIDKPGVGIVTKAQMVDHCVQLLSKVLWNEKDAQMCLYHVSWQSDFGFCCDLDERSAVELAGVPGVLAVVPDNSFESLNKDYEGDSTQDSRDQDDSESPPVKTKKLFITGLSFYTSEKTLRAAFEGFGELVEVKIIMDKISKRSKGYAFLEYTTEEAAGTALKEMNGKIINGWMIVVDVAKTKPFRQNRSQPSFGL

Q: Does AUGUAUUACACGUGCAAAAUCUGAGA (ssRNA) [rpoA_REMSA] bind [1]?
A: Result: binds

Q: Does AUGUAUUACACGUGCAAAAUCUGAGA (ssRNA) [rpoA_REMSA] bind [2]?
A: Result: no binding
